# Reference: patent US20210246204A1 (Alector, published 2021)
# Assays:
# [1] = target: T1, histidine-tagged human Siglec-7 (NovoProtein) (human, UniProt Q9Y286 19-353); experiment: BLI, antibody captured
# T1 construct: Bought protein; also called recombinant human Siglec-7; recombinant Siglec-7; not shown: histidine tag
# Experimental: In this assay, the humanized antibodies were compared directly to S7AB. Briefly, the antibodies were captured on anti-human or anti-mouse IgG Fc Biosensors (Pall ForteBio). Varying concentrations (0-100 nM) of histidine-tagged human Siglec-7 (NovoProtein) were then bound to the captured anti-Siglec-7 surface (200 s association time, 900 s dissociation time). Multi-concentration kinetic analysis was performed using a 1:1 interaction model to extract association and dissociation rate constants (kₐ and kd, respectively) for each antibody. Apparent affinity constants (KD) were calculated from the ratio kd/kₐ.
# The affinities of S7AB-H8 and variants S7AB-H8.1 through S7AB-H8.45 for human Siglec-7 were measured by BioLayer Interferometry according to the method described in Example 1 above.
# [2] = target: human Siglec-7 on primary human monocyte-derived dendritic cells (human, UniProt Q9Y286 19-467); experiment: cell-based or functional assay
# Chain of human Siglec-7 on primary human monocyte-derived dendritic cells (Q9Y286 19-467): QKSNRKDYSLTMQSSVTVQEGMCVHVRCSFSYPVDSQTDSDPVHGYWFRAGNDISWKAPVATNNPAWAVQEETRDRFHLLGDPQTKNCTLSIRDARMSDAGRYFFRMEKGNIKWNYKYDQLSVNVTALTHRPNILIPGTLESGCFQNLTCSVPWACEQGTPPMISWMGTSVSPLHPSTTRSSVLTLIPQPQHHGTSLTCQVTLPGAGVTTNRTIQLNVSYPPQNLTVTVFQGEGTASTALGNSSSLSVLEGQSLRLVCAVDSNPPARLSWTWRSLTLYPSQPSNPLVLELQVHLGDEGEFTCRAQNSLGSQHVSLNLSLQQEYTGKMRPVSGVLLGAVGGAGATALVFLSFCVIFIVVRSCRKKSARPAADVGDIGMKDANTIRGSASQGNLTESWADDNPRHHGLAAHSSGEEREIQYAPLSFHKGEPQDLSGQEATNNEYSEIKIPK
# T1 sequence (Q9Y286 19-353 limits assumed): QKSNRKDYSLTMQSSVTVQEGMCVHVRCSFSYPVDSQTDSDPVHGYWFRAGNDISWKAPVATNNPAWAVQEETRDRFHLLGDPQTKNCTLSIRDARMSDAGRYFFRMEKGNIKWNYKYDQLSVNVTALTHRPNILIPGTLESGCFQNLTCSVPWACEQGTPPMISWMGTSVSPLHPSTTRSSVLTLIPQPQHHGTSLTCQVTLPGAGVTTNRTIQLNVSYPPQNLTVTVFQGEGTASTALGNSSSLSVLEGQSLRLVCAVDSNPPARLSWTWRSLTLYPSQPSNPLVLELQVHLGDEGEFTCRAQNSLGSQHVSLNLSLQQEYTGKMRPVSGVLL
Binder,Kd [1],fold improvement over S7AB-H8 [1],koff [1],kon [1],Fold increase in potency compared to AB-H8 [2],Fold increase in potency compared to Chimeric Ab [2],Maximal downregulation (% Siglec-7 remaining) [2],"Receptor downregulation, (EC50) (pM) [2]"
"S7AB-H8.32 (antibody, V domains shown) VH: QVQLVQSGAEVKKPGASVKVSCKASGYAFTMAWMNWVRQAPGQGLEWIGRIFPGYGHTNYAQKFQGRATLTEDTSTSTAYMELSSLRSEDTAVYYCARDYSDYYFDYWGQGTLVTVSS VL: DIQMTQSPSSLSASVGDRVTITCRGSQDINTYLNWYQQKPGKAPKLLIYYTSRLHSGVPSRFSGSGSGTDYTLTISSLQPEDFATYYCQQGGTLPWTFGQGTKLEIK",0.356 nM,2.9 fold,3.93e-05 s⁻¹,111000 M⁻¹ s⁻¹,3.7 fold,11.2 fold,3.4%,91.3 pM
"S7AB-H8.38 (antibody, V domains shown) VH: QVQLVQSGAEVKKPGASVKVSCKASGYAFTGYWMNWVRQAPGQGLEWIGRIFPGLGHTNYAQKFQGRATLTEDTSTSTAYMELSSLRSEDTAVYYCARDYSDYYFDYWGQGTLVTVSS VL: DIQMTQSPSSLSASVGDRVTITCRGSQDINTYLNWYQQKPGKAPKLLIYYTSRLHSGVPSRFSGSGSGTDYTLTISSLQPEDFATYYCQQGNVLPWTFGQGTKLEIK",0.324 nM,3.2 fold,7.4e-05 s⁻¹,229000 M⁻¹ s⁻¹,4.8 fold,14.5 fold,17.1%,70.4 pM
"S7AB-H8.35 (antibody, V domains shown) VH: QVQLVQSGAEVKKPGASVKVSCKASGYAFTEAWMNWVRQAPGQGLEWIGRIFPGYGHTNYAQKFQGRATLTEDTSTSTAYMELSSLRSEDTAVYYCARDYSDYYFDYWGQGTLVTVSS VL: DIQMTQSPSSLSASVGDRVTITCRGSQDINTYLNWYQQKPGKAPKLLIYYTSRLHSGVPSRFSGSGSGTDYTLTISSLQPEDFATYYCQQGGTLPWTFGQGTKLEIK",0.607 nM,1.7 fold,6.57e-05 s⁻¹,108000 M⁻¹ s⁻¹,1.6 fold,5 fold,9.3%,206 pM
"S7AB-H8.36 (antibody, V domains shown) VH: QVQLVQSGAEVKKPGASVKVSCKASGYAFTETWMNWVRQAPGQGLEWIGRIFPGLGHTNYAQKFQGRATLTEDTSTSTAYMELSSLRSEDTAVYYCARDYSDYYFDYWGQGTLVTVSS VL: DIQMTQSPSSLSASVGDRVTITCRGSQDINTYLNWYQQKPGKAPKLLIYYTSRLHSGVPSRFSGSGSGTDYTLTISSLQPEDFATYYCQQGNVLPWTFGQGTKLEIK",0.605 nM,1.7 fold,9.81e-05 s⁻¹,162000 M⁻¹ s⁻¹,2.7 fold,8.2 fold,11.4%,125 pM
"S7AB-H8.33 (antibody, V domains shown) VH: QVQLVQSGAEVKKPGASVKVSCKASGYAFTGYWMNWVRQAPGQGLEWIGRIFPGLGHTNYAQKFQGRATLTEDTSTSTAYMELSSLRSEDTAVYYCARDYSDYYFDYWGQGTLVTVSS VL: DIQMTQSPSSLSASVGDRVTITCRGSQDINTYLNWYQQKPGKAPKLLIYYTSRLHSGVPSRFSGSGSGTDYTLTISSLQPEDFATYYCQQGGTLPWTFGQGTKLEIK",0.326 nM,3.2 fold,7.64e-05 s⁻¹,235000 M⁻¹ s⁻¹,5.2 fold,15.7 fold,17.2%,65.3 pM
"S7AB-H8.30 (antibody, V domains shown) VH: QVQLVQSGAEVKKPGASVKVSCKASGYAFTEAWMNWVRQAPGQGLEWIGRIFPGYGHTNYAQKFQGRATLTEDTSTSTAYMELSSLRSEDTAVYYCARDYSDYYFDYWGQGTLVTVSS VL: DIQMTQSPSSLSASVGDRVTITCRASQDANTYLNWYQQKPGKAPKLLIYYTSRLHSGVPSRFSGSGSGTDYTLTISSLQPEDFATYYCQQGNLLPWTFGQGTKLEIK",0.395 nM,2.7 fold,4.13e-05 s⁻¹,105000 M⁻¹ s⁻¹,2.7 fold,8.2 fold,8.2%,126 pM
"S7AB-H8.31 (antibody, V domains shown) VH: QVQLVQSGAEVKKPGASVKVSCKASGYAFTETWMNWVRQAPGQGLEWIGRIFPGLGHTNYAQKFQGRATLTEDTSTSTAYMELSSLRSEDTAVYYCARDYSDYYFDYWGQGTLVTVSS VL: DIQMTQSPSSLSASVGDRVTITCRGSQDINTYLNWYQQKPGKAPKLLIYYTSRLHSGVPSRFSGSGSGTDYTLTISSLQPEDFATYYCQQGGTLPWTFGQGTKLEIK",0.742 nM,1.4 fold,0.000107 s⁻¹,145000 M⁻¹ s⁻¹,2.4 fold,7.2 fold,10.5%,143 pM
"S7AB-H8.29 (antibody, V domains shown) VH: QVQLVQSGAEVKKPGASVKVSCKASGYAFTAAWMNWVRQAPGQGLEWIGRIFPGLGHTNYAQKFQGRATLTEDTSTSTAYMELSSLRSEDTAVYYCARDYSDYYFDYWGQGTLVTVSS VL: DIQMTQSPSSLSASVGDRVTITCRASQDANTYLNWYQQKPGKAPKLLIYYTSRLHSGVPSRFSGSGSGTDYTLTISSLQPEDFATYYCQQGNLLPWTFGQGTKLEIK",0.263 nM,4 fold,4e-05 s⁻¹,152000 M⁻¹ s⁻¹,6.7 fold,20 fold,3.7%,51.1 pM

# These reach a lower Kd [1]. Values come first.
Kd [1],fold improvement over S7AB-H8 [1],koff [1],kon [1],Fold increase in potency compared to AB-H8 [2],Fold increase in potency compared to Chimeric Ab [2],Maximal downregulation (% Siglec-7 remaining) [2],"Receptor downregulation, (EC50) (pM) [2]",Binder
0.237 nM,4.4 fold,2.81e-05 s⁻¹,119000 M⁻¹ s⁻¹,2.9 fold,8.7 fold,3.6%,118 pM,"S7AB-H8.34 (antibody, V domains shown) VH: QVQLVQSGAEVKKPGASVKVSCKASGYAFTAAWMNWVRQAPGQGLEWIGRIFPGLGHTNYAQKFQGRATLTEDTSTSTAYMELSSLRSEDTAVYYCARDYSDYYFDYWGQGTLVTVSS VL: DIQMTQSPSSLSASVGDRVTITCRGSQDINTYLNWYQQKPGKAPKLLIYYTSRLHSGVPSRFSGSGSGTDYTLTISSLQPEDFATYYCQQGGTLPWTFGQGTKLEIK"
0.215 nM,4.9 fold,3.56e-05 s⁻¹,166000 M⁻¹ s⁻¹,6 fold,18 fold,4.3%,56.8 pM,"S7AB-H8.39 (antibody, V domains shown) VH: QVQLVQSGAEVKKPGASVKVSCKASGYAFTAAWMNWVRQAPGQGLEWIGRIFPGLGHTNYAQKFQGRATLTEDTSTSTAYMELSSLRSEDTAVYYCARDYSDYYFDYWGQGTLVTVSS VL: DIQMTQSPSSLSASVGDRVTITCRGSQDINTYLNWYQQKPGKAPKLLIYYTSRLHSGVPSRFSGSGSGTDYTLTISSLQPEDFATYYCQQGNVLPWTFGQGTKLEIK"
0.159 nM,6.6 fold,3.51e-05 s⁻¹,221000 M⁻¹ s⁻¹,4.6 fold,13.7 fold,17%,74.6 pM,"S7AB-H8.28 (antibody, V domains shown) VH: QVQLVQSGAEVKKPGASVKVSCKASGYAFTGYWMNWVRQAPGQGLEWIGRIFPGLGHTNYAQKFQGRATLTEDTSTSTAYMELSSLRSEDTAVYYCARDYSDYYFDYWGQGTLVTVSS VL: DIQMTQSPSSLSASVGDRVTITCRASQDANTYLNWYQQKPGKAPKLLIYYTSRLHSGVPSRFSGSGSGTDYTLTISSLQPEDFATYYCQQGNLLPWTFGQGTKLEIK"
0.135 nM,7.8 fold,2.5e-05 s⁻¹,186000 M⁻¹ s⁻¹,4.8 fold,14.3 fold,3.4%,71.4 pM,"S7AB-H8.37 (antibody, V domains shown) VH: QVQLVQSGAEVKKPGASVKVSCKASGYAFTMAWMNWVRQAPGQGLEWIGRIFPGYGHTNYAQKFQGRATLTEDTSTSTAYMELSSLRSEDTAVYYCARDYSDYYFDYWGQGTLVTVSS VL: DIQMTQSPSSLSASVGDRVTITCRGSQDINTYLNWYQQKPGKAPKLLIYYTSRLHSGVPSRFSGSGSGTDYTLTISSLQPEDFATYYCQQGNVLPWTFGQGTKLEIK"
0.1 nM,10.5 fold,1.56e-05 s⁻¹,156000 M⁻¹ s⁻¹,3.6 fold,10.9 fold,2.9%,93.7 pM,"S7AB-H8.27 (antibody, V domains shown) VH: QVQLVQSGAEVKKPGASVKVSCKASGYAFTMAWMNWVRQAPGQGLEWIGRIFPGYGHTNYAQKFQGRATLTEDTSTSTAYMELSSLRSEDTAVYYCARDYSDYYFDYWGQGTLVTVSS VL: DIQMTQSPSSLSASVGDRVTITCRASQDANTYLNWYQQKPGKAPKLLIYYTSRLHSGVPSRFSGSGSGTDYTLTISSLQPEDFATYYCQQGNLLPWTFGQGTKLEIK"
